# Data: patent US20250250357A1 (NANJING ZAIMING PHARMACEUTICAL, published 2025)
# Like-named read-outs stand apart in the source and are kept apart here.
# T1: monkey MSLN full-length protein (NCBI: XP_028696439.1) expressed on HEK293T-monkey MSLN cells (monkey)
# T1 construct: Whole encoded precursor
# T1 chain: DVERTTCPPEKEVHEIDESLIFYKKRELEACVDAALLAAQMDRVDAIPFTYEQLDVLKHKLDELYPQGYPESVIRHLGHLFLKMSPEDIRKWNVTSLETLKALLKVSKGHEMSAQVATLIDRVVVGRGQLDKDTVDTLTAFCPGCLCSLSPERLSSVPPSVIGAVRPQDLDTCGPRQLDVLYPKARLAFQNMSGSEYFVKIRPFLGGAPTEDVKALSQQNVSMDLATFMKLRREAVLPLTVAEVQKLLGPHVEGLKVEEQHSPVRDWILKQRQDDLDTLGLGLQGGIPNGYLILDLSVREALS
# B1: Tab106 (YP218, hIgG1) (antibody, V domains shown)
# VH: QQQLEESGGGLVKPEGSLTLTCKASGFDLGFYFYACWVRQAPGKGLEWIACIYTAGSGSTYYASWAKGRFTISKASSTTVTLQMTSLAAADTATYFCARSTANTRSTYYLNLWGPGTLVTVSS
# VL: DVVMTQTPASVSEPVGGTVTIKCQASQRISSYLSWYQQKPGQRPKLLIFGASTLASGVPSRFKGSGSGTEYTLTISDLECADAATYYCQSYAYFDSNNWHAFGGGTEVVVRT
# notes: Control antibody; also called YP218 human IgG1 antibody
# B2: S009-F2.58.8 (antibody, human IgG1, kappa, V domains shown)
# VH: QVQLLQSGAELAKPGASVKLSCKASGYTFTSYWVHWVKQRPGQGLEWIGYINPNSGYTKYNQKFKDKATLTADKSSSTAYMQLSSLTYEDSAVYYCADHYYGSSRDYFDYWGQGTTLTVSS
# VL: QIVLTQSPAIMSASPGEKVTMTCSASSSVSYMYWYQQRPGSSPRLLIYDTSNLASGVPVRFSGSGSGTSYSLTISRMEAEDAATYYCQQWNSYPYTFGGGTKLEIKR
# notes: human-murine chimeric antibody, human IgG1/kappa constant regions
# B3: S009-F2.39.3 (antibody, human IgG1, kappa, V domains shown)
# VH: QVQLQQPGTELVKPGASVKLSCKASGYTFTNYWMHWVKQRPGQGLEWIGNINPSSGDSYYNERFMSKAKMTVDKSSSTAYMQLSSLTSEDSAVYYCARSGGLWLAFWGPGTLVTVSA
# VL: DIVMTQSPSSLAMSVGQKVTMSCKSSQTLLNSVSQNNYLAWYQQKPGQSPTLLVYFASTRESGVPDRFIGGGSGTDFTLTISSVQAEDLADYFCQQHYRTPYTFGGGTNLEIKR
# notes: as for B2
# B4: S009-F1.35.24 (antibody, human IgG1, kappa, V domains shown)
# VH: EVQLQQSEPELVKPGASVRISCKASGYSFTDYYMHWVKQSPENRLEWIGEINPSTGGTSYNPKFKDKATLTVDKSSSTAYMQLKSLTSEESAVYYCTRYHYYGSSSYVMDYWGQGTSVTVSS
# VL: QIVLTQSPAILSASPGERVTMTCSASSSVYHMHWFQQKSGTSPKRWVYDTSKLASGVPARFSGSGSGTSYSLTISSMEAEDAATYYCQHWRTNPLTFGAGTKLELKR
# notes: as for B2
# B5: S009-F3.80.22 (antibody, human IgG1, kappa, V domains shown)
# VH: QVQLQQSGAELVRPGASVTLSCKASGYTFTDYEIHWVKQTPVHGLEWIGAFDPEIGGSAYNQKFKDRATLTADKSSSTAYMELHSLTAEDSAVYYCTDYYGSSSGYFDVWGTGTTVTVSS
# VL: DVVMTQTPLSLPVSLGDQASISCRSSQSLEHNNGNTYLHWFLHKPGQSPKLLIYKVSNRFSGVPDRFSGSGSGTDFTLKISRVEAEDLGVYFCSQSTHVPFTFGSGTKLEIKR
# notes: as for B2
# B6: S009-F2.17.3 (antibody, human IgG1, kappa, V domains shown)
# VH: QVQLQQPGTELVTPGASVKLSCKASGYSFTSYWMHWVKQRPGQGLEWIGNINPSNGDTFYNEKFKNKATLTVDKSSSTAYMQLSSLTSEDSAVYYCARGWLRDYWGQGTTLTVSS
# VL: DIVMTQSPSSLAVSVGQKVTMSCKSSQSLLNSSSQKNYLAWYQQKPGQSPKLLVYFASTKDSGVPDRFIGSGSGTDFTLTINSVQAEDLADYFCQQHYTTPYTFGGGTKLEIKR
# notes: as for B2
# B7: S009-F1.56.1 (antibody, human IgG1, kappa, V domains shown)
# VH: EVQLQQSGAEVVKPGASVKLSCTASGFNIRHTYMHWVKQRPEQGLEWIGRIDPANGNTEYDPKFQGKATITADTSSNTAYLQLSSLTSEDTAVYYCARDGWYIDVWGAGTTVTVSS
# VL: DIVMSQSPSSLAVSVGEKVTMSCKSSQSLLYSNNQKNYLAWYQQKPGQSPKLLIYWASTRESGVPDRFTGSGSGTDFTLTISSVKAEDLAVYYCQRYYSYPWTFGGGTKLEIKR
# notes: as for B2
# B8: S009-F2.13.3 (antibody, human IgG1, kappa, V domains shown)
# VH: QVQLQQSGAELMKPGASVKLSCKATGYTFTGYWIEWVKQRPGHGLEWIGEILPGSGSTNYNEKFKGKATFTADTSSNTAYMQLSSLTTEDSAIYYCARAGAWFAYWGQGTLVTVSA
# VL: QIVLTQSPAIMSASLGERVTMTCTASSSVSSSYLHWYQQKPGSSPKLWTYSTSNLASGVPARFSGSGSGTSYSLTISSMEAEDAATYYCHQYHRSPWTFGGGTKLEIKR
# notes: as for B2
# How the values were obtained:
# [1] = molecular target: T2, human MSLN-R3 protein (Met487-Ser606 of NCBI AAH09272.1) expressed on HEK293T-hMSLN-R3 cells (human, UniProt Q13421 487-606); assay: FACS on HEK293T-hMSLN-R3 cells
# T2 construct: also called Region3
# T2 sequence (Q13421 495-614): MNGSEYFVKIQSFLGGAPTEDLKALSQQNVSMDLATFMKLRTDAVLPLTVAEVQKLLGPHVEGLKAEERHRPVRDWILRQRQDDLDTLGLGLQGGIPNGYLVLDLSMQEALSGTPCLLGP
# Experimental: (§1) The desired cells were expanded to the logarithmic growth phase in a T-75 cell culture flask. […] After the cells from the previous step were subjected to cell counting, the cell pellet was resuspended to 2×10⁶ cells/mL in a blocking buffer of [PBS+2% (w/w) BSA] and added into a 96-well FACS reaction plate at 50 μL/well. A chimeric antibody (a sample to be tested) was added at 50 μL/well, and the plate was incubated on ice for 2 h. […] After the plate was centrifuged and washed 5 times with a PBST buffer, assay and analysis were performed by FACS (FACS CantoII, purchased from BD). Data analysis was performed by software (Flowjo) to obtain the mean fluorescence intensity (MFI) of the cells.
# [2] = molecular target: T2, human MSLN-R3 protein (Met487-Ser606 of …); assay: FACS on HEK293T-hMSLN-R3 cells; remark: listed apart in the source
# Experimental: as §1
# [3] = molecular target: T3, human MSLN-FL-his protein (human, UniProt Q13421 296-580); assay: competitive ELISA; row F1.2.12; also: test concentration or dose not given here
# T3 construct: made in HEK293E cells, purified on nickel column; also called hMSLN-FL-his; human MSLN full-length protein; not shown: His tag
# T3 sequence (Q13421 other isoform, or with tags, fused parts or gaps): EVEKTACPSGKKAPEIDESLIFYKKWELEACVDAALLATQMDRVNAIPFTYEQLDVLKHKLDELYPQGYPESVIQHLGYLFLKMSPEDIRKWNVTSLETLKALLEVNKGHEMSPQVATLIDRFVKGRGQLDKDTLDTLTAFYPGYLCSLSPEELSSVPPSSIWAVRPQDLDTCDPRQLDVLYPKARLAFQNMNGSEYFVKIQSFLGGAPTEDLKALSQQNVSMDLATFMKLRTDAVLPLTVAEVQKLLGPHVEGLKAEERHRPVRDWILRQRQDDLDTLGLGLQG
# [4] = molecular target: T3, human MSLN-FL-his protein; assay: competitive ELISA; row F1.56.1; also: test concentration or dose not given here
# [5] = molecular target: T3, human MSLN-FL-his protein; assay: competitive ELISA; row F2.13.3; also: test concentration or dose not given here
# [6] = molecular target: T3, human MSLN-FL-his protein; assay: competitive ELISA; row F2.17.3
# Experimental: In order to identify antigen-binding sites of antibodies, MSLN chimeric antibodies were grouped using competitive ELISA.
# The chimeric antibodies were diluted to 2 μg/mL with PBS and allowed to coat 96-well high-adsorption ELISA plates at 50 μL/well. After the plates were coated at 4° C. overnight, 250 μL of a blocking buffer (PBS containing 2% (w/w) BSA) was added for two hours of blocking at room temperature. 40 μg/mL of the antibodies to be tested were added, and then the human MSLN-FL-His protein with an EC₈₀ concentration corresponding to each of the antibodies to be tested was added for incubation for 2 h. The plates were washed 5 times with PBS, an HRP-labeled anti-His secondary antibody (purchased from Genescript, Cat. No. A00612) was then added for incubation for 1 h, and the plates were washed 5 times again. A TMB substrate was added at 50 μL/well, and after 10 minutes of incubation at room temperature, a stop solution (1.0 M HCl) was added at 50 μL/well. OD₄₅₀ nm values were read using an ELISA plate reader (Insight, purchased from PerkinElmer), and the competition rate between the antibodies was calculated according to the OD₄₅₀ nm values using a formula.
# [7] = molecular target: T3, human MSLN-FL-his protein; assay: competitive ELISA; row F2.39.3; also: test concentration or dose not given here
# [8] = molecular target: T3, human MSLN-FL-his protein; assay: competitive ELISA; row F2.58.8; also: test concentration or dose not given here
# [9] = molecular target: T3, human MSLN-FL-his protein; assay: competitive ELISA; row F1.35.24; also: test concentration or dose not given here
# [10] = molecular target: T3, human MSLN-FL-his protein; assay: competitive ELISA; row F2.16.10; also: test concentration or dose not given here
# [11] = molecular target: T3, human MSLN-FL-his protein; assay: competitive ELISA; row F2.24.10; also: test concentration or dose not given here
# [12] = molecular target: T3, human MSLN-FL-his protein; assay: competitive ELISA; row Tab108 (R3); also: test concentration or dose not given here
# [13] = molecular target: T3, human MSLN-FL-his protein; assay: competitive ELISA; row Tab142 (R1); also: test concentration or dose not given here
# [14] = molecular target: T3, human MSLN-FL-his protein; assay: SPR (Biacore), antibody captured on Protein A chip;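 also: measured at 25 °C, analyte injected 240 s in five twofold dilutions from 200 nM, dissociation up to 600 s, double-referenced, fitted with Langmuir 1:1 model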
# [15] = molecular target: T3, human MSLN-FL-his protein; assay: competitive ELISA; row Tab107 (conformation); also: test concentration or dose not given here
# [16] = molecular target: T4, human MSLN protein endogenously expressed on OVCAR3 tumor cells (human, UniProt Q13421 296-598); assay: FACS on OVCAR3 cells
# T4 construct: whole, on cells; Endogenous target on OVCAR3 cells; kept apart from the recombinant full-length construct; also called mesothelin
# T4 sequence (Q13421 other isoform, or with tags, fused parts or gaps): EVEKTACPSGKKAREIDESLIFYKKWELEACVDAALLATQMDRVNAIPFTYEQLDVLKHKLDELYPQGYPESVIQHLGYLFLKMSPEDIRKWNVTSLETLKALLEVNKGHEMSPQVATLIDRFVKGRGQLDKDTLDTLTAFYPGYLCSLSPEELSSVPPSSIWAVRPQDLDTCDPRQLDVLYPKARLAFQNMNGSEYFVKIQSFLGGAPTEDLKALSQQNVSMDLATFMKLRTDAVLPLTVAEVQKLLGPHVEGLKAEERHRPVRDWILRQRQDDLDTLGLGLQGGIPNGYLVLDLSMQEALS
# Experimental: as §1
# [17] = molecular target: T5, human MSLN full-length protein (NCBI: AAH09272.1) expressed on HEK293T-hMSLN-B8 cells (human, UniProt Q13421 296-598); assay: FACS on HEK293T-hMSLN-B8 cells
# T5 construct: Whole encoded precursor
# T5 sequence (Q13421 other isoform, or with tags, fused parts or gaps limits assumed): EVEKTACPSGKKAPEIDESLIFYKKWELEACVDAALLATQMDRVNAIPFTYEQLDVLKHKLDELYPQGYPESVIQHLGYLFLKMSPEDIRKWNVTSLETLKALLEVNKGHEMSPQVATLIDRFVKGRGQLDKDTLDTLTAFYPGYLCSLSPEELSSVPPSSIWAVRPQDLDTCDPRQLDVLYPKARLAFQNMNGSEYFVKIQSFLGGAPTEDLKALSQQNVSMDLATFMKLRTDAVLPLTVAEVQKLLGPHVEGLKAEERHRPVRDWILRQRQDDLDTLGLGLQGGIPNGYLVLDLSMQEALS
# Experimental: as §1
# [18] = molecular target: T2, human MSLN-R3 protein (Met487-Ser606 of …); assay: FACS on HEK293T-hMSLN-R3 cells; remark: listed apart in the source
# Experimental: as §1
# [19] = molecular target: T1, monkey MSLN full-length protein (NCBI: …); assay: FACS on HEK293T-monkey MSLN cells
# Experimental: as §1
Binder,competition rate [3] [%],competition rate [4] [%],competition rate [5] [%],competition rate [6] [%],competition rate [7] [%],competition rate [8] [%],competition rate [9] [%],competition rate [10] [%],competition rate [11] [%],competition rate [12] [%],competition rate [13] [%],Kd [14] [nM],koff [14] [s⁻¹],kon [14] [M⁻¹ s⁻¹],competition rate [15] [%],also measured
B1,,,,,,,,,,,,,,,,EC50 [1]: 0.28 nM; Maximum mean fluorescence intensity [1]: 25400; EC50 [2]: 0.65 nM; Maximum mean fluorescence intensity [2]: 7460
B2,-133,104,-396,84,91,111,96,41,6,60,46,0.524,0.000123,236000,-6,
B3,-208,-87,-525,107,105,97,47,4,-13,101,19,3.06,0.000122,40000,0,
B4,-15,97,29,59,67,100,100,31,13,62,49,0.914,8.51e-05,93100,36,
B5,,,,,,,,,,,,,,,,Maximum mean fluorescence intensity [16]: 263; EC50 [17]: 36.4 nM; Maximum mean fluorescence intensity [17]: 24700; EC50 [18]: 0.99 nM; Maximum mean fluorescence intensity [18]: 4800; Maximum mean fluorescence intensity [19]: 57; binding result [19]: no binding
B6,-182,-56,-814,102,106,78,43,-8,-13,100,15,2.72,0.000174,64100,-1,
B7,75,104,-588,-6,69,107,79,-7,-39,-36,9,0.889,0.00071,799000,-35,
B8,23,-426,84,-11,13,-86,7,-41,-65,-105,-33,8.65,0.00189,219000,-54,
